Source: the supplement of paper PMC10724198
± gives the standard deviation of the averaged measurements.

system: Saccharomyces cerevisiae; assay: protein stability index of tFT-peptide fusion (C-terminal peptide) (PSI (0-1 scale)); higher = more stable (slower turnover); conditions: genetic background: wild type; temperature: 30 C
Procedure: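 Multiplexed protein stability (MPS) profiling in S. cerevisiae. Random 12-aa peptides (tFT-X12 library) are fused to the C-terminus of a sfGFP-mCherry tandem fluorescent timer, after mCherry and a GGGS linker. Cells are FACS-sorted into 8 mCherry/sfGFP bins and deep-sequenced. The protein stability index (PSI) is the read-weighted bin average, scaled from 0 (unstable) to 1 (stable). Only peptides with >10 reads are reported; cells were grown at 30 °C in SC-His with glucose.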
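Note: PSI is a weighted mean of sequencing reads over stability bins, variants kept only with over 10 reads, mCherry proximal and sfGFP distal, peptide attached via GGGS linker.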

Sequence	protein stability index
APYLPACALSSL	0.706 ± 0.015
APYSGSAMVIPG	0.713 ± 0.028
AQAPSPGRAPSP	0.7158 ± 0.0022
AQFFQALATYPI	0.677 ± 0.022
AQHTGFMRELRR	0.7278 ± 0.0016
AQPLARTALPRR	0.775 ± 0.019
AQRKSVLSPDLC	0.67 ± 0.035
AQTEADGRAHDP	0.6344 ± 0.0058
ARADIQIACIIE	0.6418 ± 0.00089
ARCSDPSAATHT	0.706 ± 0.038
AREVGGRAGRRE	0.661 ± 0.012
ARFFPLPIPPRS	0.758 ± 0.078
ARGFSAGAIGVG	0.646 ± 0.1
ARGGGRSEGGEG	0.7151 ± 0.0024
ARIGVQRFSGVV	0.708 ± 0.019
ARLHMSLFRPPA	0.646 ± 0.011
ARLSLEGASRGE	0.653 ± 0.023
ARMRQNDKHDGS	0.662 ± 0.011
ARPDTSPPGTSL	0.664 ± 0.044
ARPFCPLYTPRG	0.686 ± 0.043
ARQPMHYRITGC	0.644 ± 0.063
ARRYVPPRWGSL	0.679 ± 0.065
ARSDRLPNILPY	0.679 ± 0.071
ARSDSPRATQAN	0.697 ± 0.06
ARSFALLGCRRS	0.677 ± 0.042

Sequence	protein stability index
ARTGRELVLPKG	0.663 ± 0.0089
ARWQALTHLIVL	0.6151 ± 0.0051
ASCAPGDVTQVG	0.718 ± 0.038
ASCGTAGPCVPF	0.708 ± 0.019
ASCHFSILPTRL	0.67 ± 0.032
ASCLNYSSNRRP	0.617 ± 0.064
ASCRRGGAGCLR	0.735 ± 0.043
ASFLRPQMSLPF	0.618 ± 0.0095
ASFRPDGYTYSV	0.622 ± 0.071
ASGAPGRGRGVV	0.697 ± 0.083
ASGLVVDYTLIA	0.671 ± 0.025
ASGRARVIGVCR	0.704 ± 0.029
ASHDIFWAGSRE	0.766 ± 0.092
ASLFFSLCSLSE	0.694 ± 0.011
ASLPPPFTMLLL	0.686 ± 0.051
ASLSKLTLKVTV	0.586 ± 0.057
ASLTPFFLCSIF	0.649 ± 0.0073
ASPALPAPRSAP	0.704 ± 0.057
ASPRLTGCPNPR	0.6863 ± 0.002
ASRIGHIGQPVI	0.6889 ± 0.00017
ASRRMGGHNALS	0.705 ± 0.013
ASSPSPPTPPPP	0.647 ± 0.056
ASSTSSPPPLPP	0.666 ± 0.032
ASTLFDCHVLGA	0.697 ± 0.039
ASVVEVSSLSLL	0.629 ± 0.052

Sequence	protein stability index
ATIRNSMPYHFN	0.646 ± 0.044
ATLGTVTLAFSV	0.634 ± 0.044
ATLSSVSSGSSF	0.647 ± 0.12
ATNCERLHNPHL	0.727 ± 0.0034
ATPTQADRMPVT	0.721 ± 0.1
ATSFHALPVFTS	0.644 ± 0.053
ATSPTSGGIHTA	0.662 ± 0.0092
ATYPVPMPPTPQ	0.734 ± 0.037
AVAFELCDLTRG	0.702 ± 0.038
AVCSLTLGFGWW	0.755 ± 0.034
AVDSGSLERIRM	0.69037 ± 0.00042
AVFGLEAVMRRG	0.753 ± 0.15
AVFQEIPFGIPP	0.696 ± 0.073
AVGGVFVSSGGL	0.691 ± 0.013
AVGTAPVFLWFG	0.679 ± 0.0083
AVISDVSLKPNF	0.673 ± 0.082
AVISSSFFGSSY	0.721 ± 0.076
AVLPFFPCFSAF	0.69 ± 0.038
AVLSVGHWGSGL	0.69 ± 0.028
AVSESSRRTQFF	0.7039 ± 0.0025
AVSLTLCISSIS	0.5869 ± 0.0052
AVVRVSLPSTVV	0.667 ± 0.059
AVYIEFLYPRRL	0.644 ± 0.039
AWEWMTVQVVRG	0.586 ± 0.012
AWGGGEWGGCGR	0.772 ± 0.027

Sequence	protein stability index
AWGGSWWSLGGM	0.6715 ± 0.0056
AWGSVVTFLGLR	0.737 ± 0.054
AWGVCRPGGRGG	0.681 ± 0.035
AWMSRTRSKNLR	0.717 ± 0.048
AWPGPKMCWVVK	0.6294 ± 0.0023
AWRVVRIFFCGG	0.72 ± 0.15
AWRWGVGVGSGS	0.735 ± 0.17
AYRISCAGHIMA	0.684 ± 0.053
AYRRPKFLEGTF	0.694 ± 0.1
AYTSVSVDHLIH	0.673 ± 0.0069
CAGVGGGLVSLG	0.688 ± 0.082
CASSFSFFRFPP	0.586 ± 0.019
CAVLGGGGVWGA	0.596 ± 0.035
CAVSFPLCLLPP	0.6439 ± 0.0036
CCARRWLNFEYW	0.72 ± 0.032
CCGQRYACVFQT	0.651 ± 0.029
CCKMITYKEGRE	0.692 ± 0.06
CCLGVFFGVGGL	0.772 ± 0.12
CCLNHIFECLTL	0.7012 ± 0.0066
CCLSCGRPTLGS	0.731 ± 0.067
CCRICCCLLGTH	0.658 ± 0.032
CDGGCSWGGLMG	0.795 ± 0.071
CDRNLSYGAGSV	0.705 ± 0.049
CEPPRPGLLPLF	0.724 ± 0.016
CESRSIVSFVLL	0.73 ± 0.11

Sequence	protein stability index
CFFLVLPPFPLF	0.518 ± 0.028
CFGFVRSLGWWG	0.6486 ± 0.0027
CFMGCAKRVTLI	0.561 ± 0.039
CFRTVPPPALTR	0.7199 ± 0.002
CGAGGARGSVAR	0.693 ± 0.026
CGALKGKKPYGV	0.715 ± 0.057
CGALSVLGWEPF	0.71615 ± 0.0001
CGCFLSELATFC	0.652 ± 0.059
CGCVSWYYGALD	0.628 ± 0.0073
CGEALGVSWMTL	0.684 ± 0.0038
CGEWSWAGVGVR	0.702 ± 0.032
CGFCVCWSGVAL	0.72 ± 0.045
CGFFSGLLYFSL	0.586 ± 0.028
CGGAQRREGGLG	0.649 ± 0.03
CGLASHLCSGRG	0.66 ± 0.081
CGLRGAGVLCWG	0.483 ± 0.051
CGLRRFTGLAWS	0.6372 ± 0.00093
CGLRVAGVLCWG	0.465 ± 0.05
CGPLPLVRSLLP	0.7031 ± 0.0023
CGRCVRGGRPWG	0.577 ± 0.012
CGRGVWAVVGVP	0.715 ± 0.028
CGRSGALGPWGG	0.673 ± 0.0053
CGSAIGEARDLG	0.621 ± 0.021
CGSTLLPESYIQ	0.645 ± 0.052
CGTVVISGIVWR	0.647 ± 0.04

Sequence	protein stability index
CGVHESAIQPNL	0.605 ± 0.0081
CGWGVMDAVGSR	0.685 ± 0.019
CHILGSINKIKE	0.7 ± 0.039
CHRLGRTTGRIR	0.692 ± 0.026
CIGVRFVNAHEG	0.771 ± 0.1
CILPVLRGMSPA	0.616 ± 0.011
CIQRYSTAHPYH	0.679 ± 0.06
CIVSARCWRSPY	0.609 ± 0.0072
CKQIESRLLEGQ	0.64 ± 0.024
CLAPPTFAPSSL	0.752 ± 0.081
CLCLGGIWIVGG	0.63 ± 0.027
CLDRRCTSRGCI	0.717 ± 0.03
CLFSFGPLAVNI	0.6 ± 0.0079
CLGLVSLSGGAR	0.712 ± 0.073
CLGRDVENRDAW	0.785 ± 0.078
CLGSGGRVSRGA	0.6715 ± 0.0022
CLHLDQAACVGS	0.695 ± 0.1
CLIGHFFSVIFY	0.5239 ± 0.0051
CLLLPPLATFPR	0.695 ± 0.017
CLLSRGLTVSYS	0.626 ± 0.012
CLPGVVRGLSTM	0.703 ± 0.036
